# From patent publication US20230035235A1 (published 2023)
# B1: HA-SMARCD1 (other, human, UniProt Q96GM5 1-515, looked up)
# chain: MAARAGFQSVAPSGGAGASGGAGAAAALGPGGTPGPPVRMGPAPGQGLYRSPMPGAAYPRPGMLPGSRMTPQGPSMGPPGYGGNPSVRPGLAQSGMDQSRKRPAPQQIQQVQQQAVQNRNHNAKKKKMADKILPQRIRELVPESQAYMDLLAFERKLDQTIMRKRLDIQEALKRPIKQKRKLRIFISNTFNPAKSDAEDGEGTVASWELRVEGRLLEDSALSKYDATKQKRKFSSFFKSLVIELDKDLYGPDNHLVEWHRTATTQETDGFQVKRPGDVNVRCTVLLMLDYQPPQFKLDPRLARLLGIHTQTRPVIIQALWQYIKTHKLQDPHEREFVICDKYLQQIFESQRMKFSEIPQRLHALLMPPEPIIINHVISVDPNDQKKTACYDIDVEVDDTLKTQMNSFLLSTASQQEIATLDNKIHETIETINQLKTQREFMLSFARDPQGFINDWLQSQCRDLKTMTDVVGNPEEERRAEFYFQPWAQEAVCRYFYSKVQQRRQELEQALGIRNT
# notes: also called BAF60A; Q96GM5_SMRD1; not shown: HA tag
# B2: BRD7 (Bromodomain-containing protein 7) (other, human, UniProt Q9NPI1 1-651, looked up)
# chain: MGKKHKKHKSDKHLYEEYVEKPLKLVLKVGGNEVTELSTGSSGHDSSLFEDKNDHDKHKDRKRKKRKKGEKQIPGEEKGRKRRRVKEDKKKRDRDRVENEAEKDLQCHAPVRLDLPPEKPLTSSLAKQEEVEQTPLQEALNQLMRQLQRKDPSAFFSFPVTDFIAPGYSMIIKHPMDFSTMKEKIKNNDYQSIEELKDNFKLMCTNAMIYNKPETIYYKAAKKLLHSGMKILSQERIQSLKQSIDFMADLQKTRKQKDGTDTSQSGEDGGCWQREREDSGDAEAHAFKSPSKENKKKDKDMLEDKFKSNNLEREQEQLDRIVKESGGKLTRRLVNSQCEFERRKPDGTTTLGLLHPVDPIVGEPGYCPVRLGMTTGRLQSGVNTLQGFKEDKRNKVTPVLYLNYGPYSSYAPHYDSTFANISKDDSDLIYSTYGEDSDLPSDFSIHEFLATCQDYPYVMADSLLDVLTKGGHSRTLQEMEMSLPEDEGHTRTLDTAKEMEITEVEPPGRLDSSTQDRLIALKAVTNFGVPVEVFDSEEAEIFQKKLDETTRLLRELQEAQNERLSTRPPPNMICLLGPSYREMHLAEQVTNNLKELAQQVTPGDIVSTYGVRKAMGISIPSPVMENNFVDLTEDTEEPKKTDVAECGPGGS
# notes: Endogenous subunit co-purified in native PBAF complex; The crosslink positions count on Q9NPI1; also called Q9NPI1
# B3: GLTSCR1L (BRD4 Interacting Chromatin Remodeling Complex Associated Protein Like) (other, human, UniProt Q6AI39 1-1079, looked up)
# chain: MDDDDDSCLLDLIGDPQALNYFLHGPSNKSSNDDLTNAGYSAANSNSIFANSSNADPKSSLKGVSNQLGEGPSDGLPLSSSLQFLEDELESSPLPDLTEDQPFDILQKSLQEANITEQTLAEEAYLDASIGSSQQFAQAQLHPSSSASFTQASNVSNYSGQTLQPIGVTHVPVGASFASNTVGVQHGFMQHVGISVPSQHLSNSSQISGSGQIQLIGSFGNHPSMMTINNLDGSQIILKGSGQQAPSNVSGGLLVHRQTPNGNSLFGNSSSSPVAQPVTVPFNSTNFQTSLPVHNIIIQRGLAPNSNKVPINIQPKPIQMGQQNTYNVNNLGIQQHHVQQGISFASASSPQGSVVGPHMSVNIVNQQNTRKPVTSQAVSSTGGSIVIHSPMGQPHAPQSQFLIPTSLSVSSNSVHHVQTINGQLLQTQPSQLISGQVASEHVMLNRNSSNMLRTNQPYTGPMLNNQNTAVHLVSGQTFAASGSPVIANHASPQLVGGQMPLQQASPTVLHLSPGQSSVSQGRPGFATMPSVTSMSGPSRFPAVSSASTAHPSLGSAVQSGSSGSNFTGDQLTQPNRTPVPVSVSHRLPVSSSKSTSTFSNTPGTGTQQQFFCQAQKKCLNQTSPISAPKTTDGLRQAQIPGLLSTTLPGQDSGSKVISASLGTAQPQQEKVVGSSPGHPAVQVESHSGGQKRPAAKQLTKGAFILQQLQRDQAHTVTPDKSHFRSLSDAVQRLLSYHVCQGSMPTEEDLRKVDNEFETVATQLLKRTQAMLNKYRCLLLEDAMRINPSAEMVMIDRMFNQEERASLSRDKRLALVDPEGFQADFCCSFKLDKAAHETQFGRSDQHGSKASSSLQPPAKAQGRDRAKTGVTEPMNHDQFHLVPNHIVVSAEGNISKKTECLGRALKFDKVGLVQYQSTSEEKASRREPLKASQCSPGPEGHRKTSSRSDHGTESKLSSILADSHLEMTCNNSFQDKSLRNSPKNEVLHTDIMKGSGEPQPDLQLTKSLETTFKNILELKKAGRQPQSDPTVSGSVELDFPNFSPMASQENCLEKFIPDHSEGVVETDSILEAAVNSILEC
# notes: also called BICRAL; HA-GLTSCR1L
# B4: PHF10 (other, human, UniProt Q8WUB8 2-498, looked up)
# chain: AAAAGPGAALSPRPCDSDPATPGAQSPKDDNEDNSNDGTQPSKRRRMGSGDSSRSCETSSQDLGFSYYPAENLIEYKWPPDETGEYYMLQEQVSEYLGVTSFKRKYPDLERRDLSHKEKLYLRELNVITETQCTLGLTALRSDEVIDLMIKEYPAKHAEYSVILQEKERQRITDHYKEYSQMQQQNTQKVEASKVPEYIKKAAKKAAEFNSNLNRERMEERRAYFDLQTHVIQVPQGKYKVLPTERTKVSSYPVALIPGQFQEYYKRYSPDELRYLPLNTALYEPPLDPELPALDSDGDSDDGEDGRGDEKRKNKGTSDSSSGNVSEGESPPDSQEDSFQGRQKSKDKAATPRKDGPKRSVLSKSVPGYKPKVIPNAICGICLKGKESNKKGKAESLIHCSQCENSGHPSCLDMTMELVSMIKTYPWQCMECKTCIICGQPHHEEEMMFCDMCDRGYHTFCVGLGAIPSGRWICDCCQRAPPTPRKVGRRGKNSKEG
# notes: Endogenous PBAF subunit; numbering on the printed UniProt entry; also called BAF45A
# Legend:
# [1] = molecular target: T1, DPF1, entry C8C3P2 (45.0 kDa) (human); test: HA affinity purification from HEK-293T nuclear extract, glycerol gradient fraction 15, mass spectrometry (co-purification in the complex)
# T1 construct: Separate database entry of DPF1; also called C8C3P2_C8C3
# SMARCA2 = molecular target: T2, SMARCA2 (human, UniProt P51531 1-1590, limits assumed); test: as above
# T2 construct: also called BRM; BAF190
# ARID2 = molecular target: T3, ARID2 (human, UniProt Q68CP9 2-1835); test: as above
# T3 construct: also called BAF200; Q68CP9_ARID2
# SMARCC1 = molecular target: T4, SMARCC1 (human, UniProt Q92922 2-1105); test: as above
# T4 construct: also called BAF155; Q92922_SMRC1
# SS18 = molecular target: T5, SS18 (human, UniProt Q15532 2-418, limits assumed); test: as above
# T5 construct: also called Q15532_SSXT
# [2] = molecular target: T6, A0A0A0MT49 (gene symbol printed cut off as 'SMA', about 188 kDa) (human); test: as above
# T6 construct: Separate database entry of the search; gene symbol cut off in print
# [3] = molecular target: T7, DPF3, entry F8W7T1 (46.4 kDa) (human); test: as above
# T7 construct: Separate database entry of DPF3; also called F8W7T1_F8W7
# SMARCC2 = molecular target: T8, SMARCC2 (human, UniProt Q8TAQ2 1-1214, limits assumed); test: as above
# T8 construct: also called BAF170; Q8TAQ2_SMRC2
# ARID1A = molecular target: T9, ARID1A (human, UniProt O14497 2-2285); test: as above
# T9 construct: also called BAF250A; O14497_ARI1A
# SMARCE1 = molecular target: T10, SMARCE1 (human, UniProt Q969G3 1-411); test: as above
# T10 construct: also called BAF57; Q969G3_SMCE1
# [4] = molecular target: T11, G5E975 (gene symbol printed cut off as 'SMA', 45.0 kDa) (human); test: as above
# T11 construct: Separate database entry of the search; gene symbol cut off in print
# SMARCA4 [5] = molecular target: T12, SMARCA4 (human, UniProt P51532 1-1647, limits assumed); test: as above
# T12 construct: also called BRG1; BAF190
# [6] = molecular target: T13, PBRM1, entry C9J053 (13.6 kDa) (human); test: as above
# T13 construct: Separate fragment entry; gene symbol cut off in print; also called C9J053_C9J053
# [7] = molecular target: T14, H0Y3S9 (gene symbol printed cut off as 'ARID', 29.4 kDa) (human); test: as above
# T14 construct: Which ARID gene is meant cannot be told from the print
# ARID1B = molecular target: T15, ARID1B (human, UniProt Q8NFD5 84-2319, limits assumed); test: as above
# T15 construct: also called BAF250B; Q8NFD5_ARI1B
# [8] = molecular target: T16, SMARCA4 (SWI/SNF related, matrix associated, actin dependent regulator of chromatin, subfamily a, member 4) (human, UniProt P51532 1-1647, limits assumed); test: inter-protein BS3 crosslink, CX-MS of HA-PHF10-purified PBAF complexes from HEK-293T cells
# T16 construct: Endogenous subunit co-purified in native PBAF complex; The crosslink positions count on P51532; also called BRG1; BAF190
# [9] = molecular target: T17, SMARCC1 (SWI/SNF related, matrix associated, actin dependent regulator of chromatin subfamily c member 1) (human, UniProt Q92922 1-1105); test: HA-GLTSCR1L purification from HEK-293T cells, silver stain and gradient MS
# T17 construct: also called BAF155; HA-SMARCC1
# SMARCA4 [10] = molecular target: T18, SMARCA4 (human, UniProt P51532 1-1647, limits assumed); test: inter-protein BS3 crosslinks (CX-MS), HA-BRD7-purified PBAF complexes from HEK-293T
# T18 construct: Endogenous PBAF subunit; numbering on the printed UniProt entry; also called BRG1; BAF190
# T7 sequence (Q92784 whole entry): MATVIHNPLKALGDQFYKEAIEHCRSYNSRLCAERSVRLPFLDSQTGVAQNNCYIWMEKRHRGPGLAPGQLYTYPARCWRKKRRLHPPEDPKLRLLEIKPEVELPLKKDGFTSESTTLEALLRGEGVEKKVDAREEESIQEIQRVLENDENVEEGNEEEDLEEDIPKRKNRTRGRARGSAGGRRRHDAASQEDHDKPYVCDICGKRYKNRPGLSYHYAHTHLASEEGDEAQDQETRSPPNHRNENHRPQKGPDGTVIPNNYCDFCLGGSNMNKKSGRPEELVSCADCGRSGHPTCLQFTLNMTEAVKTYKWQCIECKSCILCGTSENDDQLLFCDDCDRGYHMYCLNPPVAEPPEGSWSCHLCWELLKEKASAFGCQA
# T1 sequence (Q92782 whole entry): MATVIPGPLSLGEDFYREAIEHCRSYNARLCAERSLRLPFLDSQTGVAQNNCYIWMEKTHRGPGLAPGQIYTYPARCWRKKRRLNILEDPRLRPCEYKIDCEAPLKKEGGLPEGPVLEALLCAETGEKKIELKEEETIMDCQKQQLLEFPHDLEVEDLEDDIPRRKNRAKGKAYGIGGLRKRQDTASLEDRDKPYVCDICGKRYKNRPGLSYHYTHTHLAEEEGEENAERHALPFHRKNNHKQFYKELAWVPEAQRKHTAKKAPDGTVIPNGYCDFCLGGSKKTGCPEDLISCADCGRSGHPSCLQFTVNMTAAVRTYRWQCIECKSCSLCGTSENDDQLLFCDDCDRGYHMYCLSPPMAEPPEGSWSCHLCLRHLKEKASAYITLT
# T3 sequence (Q68CP9 2-1835 limits assumed): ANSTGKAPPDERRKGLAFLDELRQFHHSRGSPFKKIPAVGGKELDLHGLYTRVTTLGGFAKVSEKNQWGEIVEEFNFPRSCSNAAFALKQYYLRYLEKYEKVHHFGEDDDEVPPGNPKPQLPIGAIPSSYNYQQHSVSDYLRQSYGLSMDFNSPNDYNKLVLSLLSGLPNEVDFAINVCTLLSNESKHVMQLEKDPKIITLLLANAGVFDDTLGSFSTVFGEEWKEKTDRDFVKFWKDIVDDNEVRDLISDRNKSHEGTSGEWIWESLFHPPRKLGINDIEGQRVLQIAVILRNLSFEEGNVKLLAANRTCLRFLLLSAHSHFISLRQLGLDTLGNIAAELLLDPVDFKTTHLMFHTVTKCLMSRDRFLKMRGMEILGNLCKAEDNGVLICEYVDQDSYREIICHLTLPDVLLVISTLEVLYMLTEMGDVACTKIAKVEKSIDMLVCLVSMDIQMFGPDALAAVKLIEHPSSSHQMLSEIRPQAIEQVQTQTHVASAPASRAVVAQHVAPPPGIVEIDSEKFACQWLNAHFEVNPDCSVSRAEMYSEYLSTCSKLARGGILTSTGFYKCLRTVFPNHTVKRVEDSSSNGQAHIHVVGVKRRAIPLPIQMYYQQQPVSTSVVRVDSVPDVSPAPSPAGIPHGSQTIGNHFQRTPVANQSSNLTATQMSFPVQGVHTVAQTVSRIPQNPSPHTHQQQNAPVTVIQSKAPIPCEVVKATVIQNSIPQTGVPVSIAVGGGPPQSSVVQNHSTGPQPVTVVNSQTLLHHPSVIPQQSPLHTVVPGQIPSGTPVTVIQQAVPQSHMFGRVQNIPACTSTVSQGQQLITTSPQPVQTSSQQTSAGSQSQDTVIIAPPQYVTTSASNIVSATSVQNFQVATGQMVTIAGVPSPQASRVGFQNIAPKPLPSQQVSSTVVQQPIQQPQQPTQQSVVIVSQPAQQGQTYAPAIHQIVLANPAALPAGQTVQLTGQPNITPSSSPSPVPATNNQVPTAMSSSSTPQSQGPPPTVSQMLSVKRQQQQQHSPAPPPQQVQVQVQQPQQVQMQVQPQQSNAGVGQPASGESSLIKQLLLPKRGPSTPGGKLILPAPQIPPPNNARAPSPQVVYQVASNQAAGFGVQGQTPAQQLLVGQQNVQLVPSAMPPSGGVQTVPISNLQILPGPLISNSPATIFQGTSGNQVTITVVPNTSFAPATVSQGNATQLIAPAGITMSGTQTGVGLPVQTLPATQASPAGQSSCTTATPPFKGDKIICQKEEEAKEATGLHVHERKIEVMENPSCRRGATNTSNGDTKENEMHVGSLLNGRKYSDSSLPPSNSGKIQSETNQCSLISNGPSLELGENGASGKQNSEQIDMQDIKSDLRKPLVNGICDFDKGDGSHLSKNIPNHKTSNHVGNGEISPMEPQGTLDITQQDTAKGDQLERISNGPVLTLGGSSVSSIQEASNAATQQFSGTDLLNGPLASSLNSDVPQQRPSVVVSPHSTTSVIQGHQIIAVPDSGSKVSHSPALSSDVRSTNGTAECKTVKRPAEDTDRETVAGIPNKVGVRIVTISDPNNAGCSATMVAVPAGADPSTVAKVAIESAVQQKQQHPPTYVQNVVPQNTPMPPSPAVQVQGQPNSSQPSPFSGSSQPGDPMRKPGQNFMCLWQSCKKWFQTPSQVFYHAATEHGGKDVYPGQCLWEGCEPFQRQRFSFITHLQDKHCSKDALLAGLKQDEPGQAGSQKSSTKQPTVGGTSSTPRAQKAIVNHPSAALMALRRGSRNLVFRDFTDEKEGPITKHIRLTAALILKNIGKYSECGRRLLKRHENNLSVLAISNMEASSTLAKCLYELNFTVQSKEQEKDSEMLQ
# T10 sequence (Q969G3 whole entry): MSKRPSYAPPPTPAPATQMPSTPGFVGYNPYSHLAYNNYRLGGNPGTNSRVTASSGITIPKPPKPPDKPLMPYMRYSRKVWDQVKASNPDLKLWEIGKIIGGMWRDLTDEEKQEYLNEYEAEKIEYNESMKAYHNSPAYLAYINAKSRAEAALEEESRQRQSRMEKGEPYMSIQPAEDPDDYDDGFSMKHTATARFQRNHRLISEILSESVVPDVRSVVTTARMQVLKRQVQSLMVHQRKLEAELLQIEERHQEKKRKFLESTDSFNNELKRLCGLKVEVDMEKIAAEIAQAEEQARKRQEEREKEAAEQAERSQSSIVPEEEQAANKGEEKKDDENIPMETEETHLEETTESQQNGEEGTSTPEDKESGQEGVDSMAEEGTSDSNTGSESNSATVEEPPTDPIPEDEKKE
# T4 sequence (Q92922 2-1105 limits assumed): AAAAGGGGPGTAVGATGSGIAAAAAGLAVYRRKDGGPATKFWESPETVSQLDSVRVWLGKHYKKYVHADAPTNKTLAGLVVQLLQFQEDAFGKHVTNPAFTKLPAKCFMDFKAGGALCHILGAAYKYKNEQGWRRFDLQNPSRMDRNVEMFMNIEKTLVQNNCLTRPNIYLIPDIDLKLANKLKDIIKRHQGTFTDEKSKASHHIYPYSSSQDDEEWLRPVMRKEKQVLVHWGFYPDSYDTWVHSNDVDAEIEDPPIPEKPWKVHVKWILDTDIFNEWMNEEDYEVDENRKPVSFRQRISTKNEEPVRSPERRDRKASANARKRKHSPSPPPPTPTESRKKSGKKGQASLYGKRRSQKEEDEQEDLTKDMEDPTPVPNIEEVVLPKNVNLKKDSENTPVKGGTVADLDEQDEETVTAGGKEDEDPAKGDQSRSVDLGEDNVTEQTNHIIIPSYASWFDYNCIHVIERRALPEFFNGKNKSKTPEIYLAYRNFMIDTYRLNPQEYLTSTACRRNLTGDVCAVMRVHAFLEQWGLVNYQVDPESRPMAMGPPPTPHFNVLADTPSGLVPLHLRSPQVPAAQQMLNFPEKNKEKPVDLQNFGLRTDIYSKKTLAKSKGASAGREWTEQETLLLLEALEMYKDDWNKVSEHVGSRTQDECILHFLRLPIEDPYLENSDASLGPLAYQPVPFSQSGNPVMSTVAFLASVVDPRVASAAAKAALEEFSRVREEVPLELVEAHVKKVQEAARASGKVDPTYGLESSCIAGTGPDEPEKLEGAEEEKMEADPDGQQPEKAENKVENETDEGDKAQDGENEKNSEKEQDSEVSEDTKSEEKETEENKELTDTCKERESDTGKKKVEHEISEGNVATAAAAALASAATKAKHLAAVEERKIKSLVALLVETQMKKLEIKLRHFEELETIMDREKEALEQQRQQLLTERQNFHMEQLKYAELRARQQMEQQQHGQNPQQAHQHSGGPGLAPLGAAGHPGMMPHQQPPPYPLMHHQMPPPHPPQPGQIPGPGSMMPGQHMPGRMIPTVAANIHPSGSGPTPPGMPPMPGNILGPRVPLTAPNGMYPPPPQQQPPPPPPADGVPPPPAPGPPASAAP
# T5 sequence (Q15532 2-418 limits assumed): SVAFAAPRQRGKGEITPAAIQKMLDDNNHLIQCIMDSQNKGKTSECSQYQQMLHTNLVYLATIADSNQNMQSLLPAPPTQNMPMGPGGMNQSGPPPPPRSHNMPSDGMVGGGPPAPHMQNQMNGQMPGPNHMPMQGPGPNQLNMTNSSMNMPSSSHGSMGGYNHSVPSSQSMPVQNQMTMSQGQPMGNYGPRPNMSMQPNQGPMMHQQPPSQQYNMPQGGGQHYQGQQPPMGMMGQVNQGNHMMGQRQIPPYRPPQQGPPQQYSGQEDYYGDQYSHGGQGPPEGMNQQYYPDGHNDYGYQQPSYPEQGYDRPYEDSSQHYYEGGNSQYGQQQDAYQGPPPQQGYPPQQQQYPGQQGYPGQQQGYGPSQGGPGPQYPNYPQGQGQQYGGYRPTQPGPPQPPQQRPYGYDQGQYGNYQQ
binder,measurement,setting,value
B1,total peptides,[1],1 peptides
same,unique peptides,[1],1 peptides
same,total peptides,SMARCA2,206 peptides
same,unique peptides,SMARCA2,74 peptides
same,total peptides,ARID2,55 peptides
same,unique peptides,ARID2,41 peptides
same,total peptides,SMARCC1,403 peptides
same,unique peptides,SMARCC1,88 peptides
same,total peptides,SS18,3 peptides
same,unique peptides,SS18,2 peptides
same,total peptides,[2],8 peptides
same,unique peptides,[2],2 peptides
same,total peptides,[3],2 peptides
same,unique peptides,[3],1 peptides
same,total peptides,SMARCC2,172 peptides
same,unique peptides,SMARCC2,55 peptides
same,total peptides,ARID1A,321 peptides
same,unique peptides,ARID1A,100 peptides
same,total peptides,SMARCE1,114 peptides
same,unique peptides,SMARCE1,33 peptides
same,total peptides,[4],3 peptides
same,unique peptides,[4],2 peptides
same,total peptides,SMARCA4 [5],153 peptides
same,unique peptides,SMARCA4 [5],53 peptides
same,total peptides,[6],1 peptides
same,unique peptides,[6],1 peptides
same,total peptides,[7],1 peptides
same,unique peptides,[7],1 peptides
same,total peptides,ARID1B,189 peptides
same,unique peptides,ARID1B,75 peptides
B2,binding result,[8],binds
B3,binding result,[9],binds
B4,binding result,SMARCA4 [10],binds
